The source of these data is patent publication US6331664A, “Acyl-ACP thioesterase nucleic acids from maize and methods of altering palmitic acid levels in transgenic plants therewith” (Dow AgroSciences LLC, priority 1998, dated 2001).

The Km is the concentration of substrate that gives half-maximal velocity.

Data set [1] deals with maize OTE. Kind of data set: Thioesterase assay, substrate specificity of maize OTE expressed in E. coli. The data set is classed as biochemical. The note with it: for Percent Relative Activity: radio-labeled acyl-ACP, 100% = 2.1 units/mg protein.
Data set [2] has as its system maize OTE. Put plainly: Thioesterase assay, substrate specificity and Km of maize OTE purified from kernels. In kind it is biochemical. The note with it: for activity relative to that observed with 18:1-ACP: C14-labeled acyl-ACPs; for Km: double reciprocal plots. Here is the method: (§1) For enzymatic analysis of E coli expressed maize PTE, substrates were made as follows: ACP (Sigma Chemical Co.) was further purified by three cycles of precipitation at pH 4.0 using 10% (v/v) acetic acid followed by resolubilization in 50 mM Tris-HCl, pH 8.0. Carbon-14 or tritium-labeled fatty acids (lauric, 12:0; myristic, 14:0; palmitic, 16:0; stearic, 18:0; and oleic, 18:1) were obtained from Amersham (Arlington Heights, Ill.) or NEN Research Products. Acyl-ACPs were synthesized and purified according to Rock et al., ((1981) Methods in Enzymology, 72:397-403). Thioesterase assays were conducted according to Ohlrogge et al., ((1978) Arch. Biochem. Biophys. 189:382-391) with slight modifications. A standard reaction contained […] Tris-HCl, pH 8.0, 10 μM radio-labeled acyl-ACP (50-58 μCi/μmol), and enzyme in 50 μL. Reactions were conducted at 30° C. for 5 min and terminated with 200 μL of 10% (v/v) acetic acid. Free fatty acids were extracted twice with 1 mL hexane and the organic phases were combined for liquid scintillation counting. Protein concentrations were determined according to Bradford ((1976) Anal. Biochem. […]:248-254). Linear regressions were used for determination of kinetic constants from double reciprocal plots.
The resolubilized PEG-precipitated material was applied to hydroxyapatite (HA-Ultrogel, Sigma Chemical Co.) which had been previously loaded into a 2.5×20 cm column equilibrated with buffer A. After loading, the column was washed with 300 mL of buffer A and maize OTE activity was eluted with buffer A having 1 M NaCl. Enzymatic activity was followed using C^14 labeled 18:1-ACP as substrate. Production of substrate and biochemical assays were performed as described herein. Fractions having thioesterase activity were pooled and desalted to 20 mM Tris, pH 7.0, 0.4 mM DTT (buffer B) on PD-10 columns (Pharmacia). The desalted fraction was then applied to a MonoQ HR 10/10 column (Pharmacia) and the enzyme was eluted using a linear gradient of 0-0.5 M NaCl in buffer B over 30 min. at a flow rate of 4 mL/min. Fractions were assayed for activity and active fractions were pooled and desalted on PD-10 columns (Pharmacia) equilibrated with buffer A.
The substrate specificity of purified maize OTE was analyzed using several C^14 -labeled acyl-ACPs as described herein. […] Low activities (less than 10% of that observed with 18:1-ACP) were observed when using 12:0-ACP, 14:0-ACP, 16:0-ACP, 18:0-ACP.

The test system of data set [3] is maize PTE. Put plainly: Thioesterase assay, substrate specificity of partially purified maize PTE expressed in E. coli. In kind it is biochemical. To be noted: for Percent Relative Activity: 10 μM radio-labeled acyl-ACP, 30° C., 5 min, 100% = 2.1 units/mg protein. Here is the method:
as §1

The target of data set [4] is 14:0-ACP (Myristate).
For data set [5], the target named is 18:1-ACP (Oleate).
The target of data set [6] is 16:0-ACP (Palmitate).
Data set [7] addresses 12:0-ACP (Laurate).
Data set [8] deals with 18:0-ACP (Stearate).
Data set [9] has as its target 14:0-ACP (Myristate). This is another data set of the same source.
Data set [10] concerns the target 18:1-ACP (Oleate). This is another data set of the same source.
Data set [11] has as its target 16:0-ACP (Palmitate). The source holds these as a separate data set.
For data set [12], the target named is 12:0-ACP (Laurate). The source holds these as a separate data set.
Data set [13] deals with 18:0-ACP (Stearate). This is another data set of the same source.
For data set [14], the target named is 14:0-ACP (Myristate). This is another data set of the same source.
The target in data set [15] is 18:1-ACP (Oleate). The source holds these as a separate data set.
For data set [16], the target named is 16:0-ACP (Palmitate). The source holds these as a separate data set.
Data set [17] has as its target 12:0-ACP (Laurate). This is another data set of the same source.
Data set [18] concerns the target 18:0-ACP (Stearate). The source holds these as a separate data set.

Read-outs that look alike come from different tables or passages of the source.

Turning to “16:0-ACP: radio-labeled palmitic acid thioester of acyl carrier protein, thioesterase substrate”, the “Percent Relative Activity” value in [1] was found to be 14.1%. Besides, in [2], the “activity relative to that observed with 18:1-ACP” value was “less than 10%” and the Km was found to be 25 µM. In addition, the “Percent Relative Activity” value in [3] amounted to 100.0%.
With “maize palmitoyl-ACP thioesterase, mature protein expressed in E. coli (pDAB378) (enzyme)”, the Percent Relative Activity (thioesterase assay, release of radio-labeled free fatty acid) (% relative activity) in data set [4] was found to be 16; in [5] it was 40.4; in data set [6], 100; in [7], 0; in [8], 61.2.
Consider “18:1-ACP: radio-labeled oleic acid thioester of acyl carrier protein, thioesterase substrate”, for which the “Percent Relative Activity” value in data set [1] was determined as 100.0%; in [3], 40.4%. For the same molecule, the Km in [2] was found to be 0.75 µM.
As for “maize oleoyl-ACP thioesterase, mature protein expressed in E. coli (pDAB371) (enzyme)”, the Percent Relative Activity (thioesterase assay, release of radio-labeled free fatty acid) (% relative activity) in [9] was 6.3; in data set [10], 100; in [11], 14.1; in [12] it was 0.7; in [13], 25.2.
As for “18:0-ACP: radio-labeled stearic acid thioester of acyl carrier protein, thioesterase substrate”, the “Percent Relative Activity” value in data set [1] is listed as 25.2%; in [3], 61.2%. In addition, in data set [2], the “activity relative to that observed with 18:1-ACP” value is “less than 10%”.
Regarding “maize oleoyl-ACP thioesterase, native protein from maize kernels and embryos (enzyme)”, the substrate specificity (thioesterase assay with C14-labeled acyl-ACPs) (% of that observed with 18:1-ACP) in data set [14], in data set [16], in data set [17] and in [18] was < 10 throughout. Besides, the Km in data set [15] was 0.75 µM; in [16], 25 µM.
For “12:0-ACP: radio-labeled lauric acid thioester of acyl carrier protein, thioesterase substrate”, the entries for the “Percent Relative Activity” value in data set [1] and in [3] were 0.7% and 0.0%, respectively. For the same molecule, the “activity relative to that observed with 18:1-ACP” value in data set [2] is reported as “less than 10%”.

B1: maize OTE: maize oleoyl-ACP thioesterase, purified from kernels or expressed in E. coli from pDAB371 (protein)
chain: CARGAPQVSGIEAASPGHAAVTAALAKAEGGDARPSLAERLRLGNLLEDGLSYKESFIVRCYEVGINKTATVETIANLLQEVGCNHAQSVGFSTDGFATTTTMRKLGLIWVTNRMHIEIYKYPAWGDVVEIETWCQEDGRIGTRRDWILKDLANGEVIGRATSKWVMMNQNTRRLQRVSDDVRDEVFMHCPKAPRLAFPEENNGSLKKIPNLSDPAEYSRLGLVPRRADLDMNQHVNNVTYIGWVLESIPQDIIDTHELQTITLDYRRECQQDDIVDSLTCIEEGEEKSMNGSASAAAPHKEERQQFLHCLRFAANGHEINRGRTVWRKLAR
As to B1, the “specific activity equivalent to 100% relative activity” value in data set [1] (unit = cleavage of 1 μmol/h free fatty acid at 30° C., 18:1-ACP) came to 2.1 units/mg protein.

B2: maize PTE: maize palmitoyl-ACP thioesterase, mature protein expressed in E. coli from pDAB378 (protein)
chain: LPDWSMLLAAITTIFLAAEKQWTMLDWKPRRPDMLTDTFGFGRIIHDGLMFRQNFSIRSYEIGADRTASIETLMNHLQETALNHVKTAGLLGDGFGSTPEMSKRNLFWVVSQMQAIIERYPCWGDTVEVDTWVSANGKNGMRRDWHIRDPITGLTILKATSKWVMMNKLTRKLARIPDEVRTEIEPYFFEHSAIVDEDNRKLPKLPEGQSTSVAKYVRTGLTPRWADLDINQHVNNVKYIAWILESAPISILENHELASIVLDYKRECGRDSVLQSHTSVHTDCNSESGETTLHCEHVLSLESGPTMVKARTMWRPKGTKAQETVVPSSI
Turning to B2, the “specific activity equivalent to 100% relative activity” value in data set [3] (unit = cleavage of 1 μmol/h free fatty acid at 30° C., 16:0-ACP) was determined as 2.1 units/mg protein.
